Source: article PMC5770381

What was measured:
Experiment in all cases: purified protein
[1] = test system: CO/N=C(\C(=O)N[C@@H]1C(=O)N2C(C(=O)O)=C(COC(C)=O)CS[C@H]12)c1csc(N)n1; details: Tris-HCl pH 7.4, 35 °C, 10-100 μM substrate
[2] = test system: CC1(C)S[C@@H]2[C@H](NC(=O)[C@H](N)c3ccc(O)cc3)C(=O)N2[C@H]1C(=O)O; details: Tris-HCl pH 7.4, 35 °C, 20-500 μM substrate
[3] = test system: C[C@@H](O)[C@H]1C(=O)N2C(C(=O)O)=C(S[C@@H]3CN[C@H](C(=O)N(C)C)C3)[C@H](C)[C@H]12; details: Tris-HCl pH 7.4, 35 °C, 10-200 μM substrate

In the case of “ElBla2 (Erythrobacter litoralis HTCC2594)”, the Km [1] is reported as 13 ± 4 µM, the kcat [1] is reported as 0.9 ± 0.1 s⁻¹ and the kcat/Km [1] is reported as 70000 M⁻¹ s⁻¹. It also gave a Km [2] of 39 ± 9 µM, a kcat [2] of 1.4 ± 0.1 s⁻¹ and a kcat/Km [2] of 40000 M⁻¹ s⁻¹. The Km [3] was 19 ± 6 µM, the kcat [3] was 2.1 ± 0.2 s⁻¹ and the kcat/Km [3] was 110000 M⁻¹ s⁻¹.
